# Measured values: PMC8342710, “Switching at the ribosome: riboswitches need rProteins as modulators to regulate translation”
# B1: ASW14-140, add riboswitch (structured_RNA)
# RNA: GCUUCAUAUAAUCCUAAUGAUAUGGUUUGGGAGUUUCUACCAAGAGCCUUAAACUCUUGAUUAUGAAGUCUGUCGCUUUAUCCGAAAUUUUAUAAAGAGAAGACUCAUGAAUUACUUUGACCUGCCG
# How the values were obtained:
# [1] = molecular target: 30SΔS1 ribosomal subunit (rS1-depleted);ribosomal protein rS1 (Escherichia coli JE28;Vibrio vulnificus CMCP6) (UniProt A0A3Q0L6Y6); assay: MST; conditions: MST: 25 mM K-phosphate pH 7.2, 150 mM KCl, 5 mM MgCl2, 5 mM DTT, 0.4 mg/mL BSA, 0.05% Tween20, RNasin, 25 °C, EMSA: 25 mM K-phosphate pH 7.2, 75 mM KCl
# [2] = molecular target: rS1-depleted 30S ribosomes from E. coli (E. coli (endogenous in strain JE28)) (UniProt P0A7V0); assay: MST; labeled 30SΔS1 (30 nM) with a 1:1 dilution series of rS1 (3 µM); 30 min at 25 °C; 25 mM potassium phosphate pH 7.2, 150 mM KCl, 5 mM MgCl2, 5 mM DTT, 0.4 mg/mL BSA, 0.05% Tween20, RNasin
# ribosomal protein rS1 = ribosomal protein rS1 (Vibrio vulnificus CMCP6, UniProt A0A3Q0L6Y6 1-556); assay: NMR; holo (adenine); 1:1 rS1 opens P4 and P5 by 50%; MST: 25 mM K-phosphate pH 7.2, 150 mM KCl, 5 mM MgCl2, 5 mM DTT, 0.4 mg/mL BSA, 0.05% Tween20, RNasin, 25 °C; EMSA: 25 mM K-phosphate pH 7.2, 75 mM KCl, 5 mM DTT, on ice; conditions: protein: recombinant; tags: N-terminal His-thioredoxin tag, cleaved by TEV; label: 13C,15N (NMR); riboswitch fold with helices P1-P5
molecule,measurement,setting,value
"GCUUCAUAUAAUCCUAAUGAUAUGGUUUGGGAGUUUCUACCAAGAGCCUUAAACUCUUGAUUAUGAAGUCUGUCGCUUUAUCCGAAAUUUUAUAAAGAGAAGACUCAUGAAUUACUUUGACCUGCCG [ASW14-140, Cy5-labeled add riboswitch]",Kd,[1],60 nM
ribosomal protein rS1 from Vibrio vulnificus (from UniProt A0A3Q0L6Y6 1-556) (natural protein),Kd,[2],170 nM
B1,binding result,ribosomal protein rS1,binds
